Experimental data published in patent publication US20210198647.

Assays:
[1] = tested on: NlnA#1, NSC 374121, L-histidyl-L-tyrosine
[2] = tested on: NlnA#2, NSC 523374, D,L-histidyl-D,L-histidine

| Substance | Emax, QFS (25 µM) hydrolysis [1] | Emax, QFS (25 µM) hydrolysis [2] |
| --- | --- | --- |
| mouse brain-purified neurolysin | 190% (95% confidence intervals 169.2 to 210.7%) | 258% (95% confidence intervals 232.7 to 283.8%) |
| recombinant human neurolysin (R & D systems, product number 3814-ZN) | 203.5% (95% confidence intervals 193.7 to 213.4%) | 214.3% (95% confidence intervals 205.7 to 222.9%) |
